# Data: the RNAGym collection of RNA variant scans (doi:10.7554/elife.90254)
# B1: OR4K15 (parent)
# chain: GUUAACGGUCAUAGGCCAUGGAAACUAGGAGCACCAUUUCGCUGCCAGUGAAGAAAUGAACAAAGAAAAUCUGGGCCAGGCAGGCAUCAAAAGAAAUAGUCUUGCGCUCAACCAGAAAGUCUGUAAUCAUUUUAAGGGUA
# Variants of: B1
# Experiment: self-cleavage, relative activity (ratio to wild type); higher = more cleavage; in vitro, sequencing; the parent is a self-cleaving ribozyme
row,Variant,self-cleavage
1,C107A,0.03
2,A63G U100C,2.31
3,G84A A92U,2.15
4,A5U A18G,1.83
5,U127A,1.6
6,C25U A47G,1.76
7,G7A U124C,1.03
8,A36U U100C,2.44
9,C25A A36G,1.03
10,G41A U127A,2.15
11,G73U A86G,0.17
12,A33G U102G,0.47
13,A18U A30U,1.57
14,A64G A140G,1.47
15,A11U C88A,1.99
16,A82G G106A,0.01
17,A64G G138A,1.9
18,U19A A33G,0.62
19,U2C U97C,0.55
20,A95G G123A,1.22
21,G83A A86U,2.81
22,A30G A62C,1.38
23,A56G A59G,1.2
24,A13U U43C,1.24

row,Variant,self-cleavage
1,U49C C109U,0.18
2,U9G A96G,1.46
3,A60U U122A,2.08
4,A36G U127A,1.87
5,A59U A60G,1.32
6,U9C C46U,1.03
7,U9C C46A,1.74
8,U12A U49C,1.59
9,U19A A96U,1.41
10,U120A,1.61
11,C25U U70C,0.35
12,G65C A111U,0.07
13,A36C A91G,1.81
14,U120A A140U,1.67
15,A86G,1.16
16,U37C U124A,0.21
17,U49C A51G,0.9
18,U26A A69G,1.5
19,A22U U87A,1.53
20,A62C U122C,1.33
21,U49A A89G,0.47
22,A91U U103C,0.51
23,A96G U103G,0.03
24,U19A A23G,1.28

row,Variant,self-cleavage
1,U87C G123C,1.6
2,A22G A126U,0.92
3,A89U U133C,1.97
4,A5U A78G,0.44
5,G58A A60G,1.51
6,A116U U133C,0.21
7,G73A C121G,0.45
8,A60U A111G,0.05
9,A92U A116G,0.99
10,A18C U131C,0.73
11,A47G A82U,0.07
12,A86G C112A,0
13,U19C A86U,1.8
14,U38C U87C,1.26
15,A24G C109A,0.3
16,U120A U124C,1.04
17,U122C U131G,0.88
18,G65A A117U,0.6
19,A67G U127C,1.16
20,U43A A96U,1.72
21,A5U U108C,0.04
22,U87A U100C,2.28
23,A59G A126G,0.81
24,A51U A62U,1.15

row,Variant,self-cleavage
1,A96G C101U,0.4
2,A69G G99U,0.23
3,A5G C88U,1.02
4,A51U A91G,0.5
5,G79U,0.06
6,U3A U102C,1.99
7,A52G C109U,0.71
8,A118U A125G,0.86
9,G21A A78U,0.86
10,A51G A118G,1.29
11,A56G A110G,0.07
12,C16U A69G,0.74
13,U26C A86C,0.7
14,U2A U139G,0.81
15,A111U A114U,0.02
16,C88U A94G,1.27
17,C77A U100C,0.61
18,U70C A118G,0.35
19,U3C A91U,1.11
20,A86U A140G,1.62
21,U49C A114G,0.42
22,A114U A116G,0.01
23,A60C A135U,1.44
24,A54U U87C,1.34

row,Variant,self-cleavage
1,U12C A47G,1.3
2,A56G A90G,1.03
3,G119C U132C,1.13
4,U49C G104A,0.04
5,A24G U139C,0.99
6,A89U U108G,0
7,G20C,1.88
8,G7A A86G,0.94
9,A95G A114C,0.06
10,C32U C40U,2.05
11,U37A A68G,0.51
12,A62G G138A,1.04
13,A5G G104A,0.03
14,A22U U132A,1.7
15,A24G U49C,1.37
16,A92U A129U,1
17,U43C A116U,0.46
18,A91C A117G,2.03
19,G8C U43C,2.42
20,A63G U127C,0.58
21,C25G A118G,0.35
22,G74A U122A,0.18
23,A92G A111G,0.02
24,U39A A47U,0.73

row,Variant,self-cleavage
1,G65U A86G,0.19
2,G14A A117G,1.22
3,G20U U70C,0.6
4,A51G U131G,1.08
5,A56G A86C,1.48
6,A118G U120G,0.59
7,A82C A90G,0.15
8,A69G U120C,0.98
9,A82G A86U,0.88
10,A24G U131G,1.61
11,U38C U72C,0.27
12,C77U,1.54
13,U37C U100C,1.67
14,A110G A129U,0.08
15,A56G U87A,1.54
16,U49A A126U,1.59
17,A54G A86U,1.71
18,A59G A129G,1.16
19,A52G C113U,0.14
20,A24C A117G,0.83
21,A52G U127A,1.73
22,A60G A67G,0.84
23,A91G A118G,0.94
24,A56U A110U,1

row,Variant,self-cleavage
1,A114G U131C,0.15
2,A67G C107U,0.01
3,A64G C105U,0.12
4,C16U A27G,0.94
5,U108A A116G,0.01
6,A18G U100C,2.34
7,A60G C112A,0.02
8,U39C G136A,2.38
9,A47U A78G,0.17
10,A92G A135G,1.48
11,A11C A13G,0.93
12,U120C G136A,1.65
13,A91G A111U,0.03
14,A5G U87C,0.88
15,A51U U139A,1.14
16,A111G A117U,0
17,U49A G75C,0.07
18,A114G A118U,0.04
19,G53A A60G,1.53
20,A69G A126G,0.55
21,U72C C105A,0.03
22,C6A A66G,1.23
23,U2A A23U,1.24
